In article PMC10883291:

Experiments:
Assay in all cases: FRET or BRET; time-resolved FRET (Cisbio); FcγRs expressed on HEK293 cells (Tb donor cells); IgG-d2 acceptor conjugate displaced by the test antibodies; EC50 by the manufacturer's protocol
[1] = molecular target: FcγR1 (CD64) (human) (UniProt P12314)
[2] = molecular target: FcγR2B (human) (UniProt P31994)
[3] = molecular target: FcγR2A (CD32aH131) (human) (UniProt P12318)
[4] = molecular target: FcγR3A (CD16aF158) (human) (UniProt P08637)
[5] = molecular target: FcγR2A (CD32aR131) (human)
Chain of FcγR2A (CD32aR131) (human) (P12318 34-317 H167R): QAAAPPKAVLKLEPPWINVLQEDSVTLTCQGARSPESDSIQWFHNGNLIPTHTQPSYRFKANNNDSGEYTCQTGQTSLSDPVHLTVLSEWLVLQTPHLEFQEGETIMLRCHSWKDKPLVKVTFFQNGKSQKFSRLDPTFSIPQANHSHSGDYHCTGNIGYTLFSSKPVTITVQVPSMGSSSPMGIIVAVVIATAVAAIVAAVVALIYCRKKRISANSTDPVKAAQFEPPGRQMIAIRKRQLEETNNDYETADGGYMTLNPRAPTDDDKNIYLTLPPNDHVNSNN

Chain of FcγR2A (CD32aH131) (human) (P12318 34-317): as the sequence (P12318 34-317 H167R) above, with R134H counted along it
Chain of FcγR1 (CD64) (human) (P12314 16-374): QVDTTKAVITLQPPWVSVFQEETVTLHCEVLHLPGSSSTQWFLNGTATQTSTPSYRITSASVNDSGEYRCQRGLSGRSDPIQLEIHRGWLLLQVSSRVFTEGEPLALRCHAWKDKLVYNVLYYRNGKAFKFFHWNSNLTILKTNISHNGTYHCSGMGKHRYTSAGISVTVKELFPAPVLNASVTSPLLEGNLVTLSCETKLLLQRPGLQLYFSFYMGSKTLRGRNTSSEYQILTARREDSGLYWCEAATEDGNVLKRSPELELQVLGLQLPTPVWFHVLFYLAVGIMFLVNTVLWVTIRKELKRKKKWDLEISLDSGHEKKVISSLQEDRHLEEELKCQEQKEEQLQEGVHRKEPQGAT
Chain of FcγR3A (CD16aF158) (human) (P08637 17-254): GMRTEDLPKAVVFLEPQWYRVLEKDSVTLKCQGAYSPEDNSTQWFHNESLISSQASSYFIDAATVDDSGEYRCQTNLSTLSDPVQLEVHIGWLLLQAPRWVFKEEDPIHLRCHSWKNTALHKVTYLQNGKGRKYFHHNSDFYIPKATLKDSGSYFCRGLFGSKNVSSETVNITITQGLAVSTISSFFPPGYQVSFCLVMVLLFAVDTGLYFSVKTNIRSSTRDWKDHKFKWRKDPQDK
Chain of FcγR2B (human) (P31994 43-310): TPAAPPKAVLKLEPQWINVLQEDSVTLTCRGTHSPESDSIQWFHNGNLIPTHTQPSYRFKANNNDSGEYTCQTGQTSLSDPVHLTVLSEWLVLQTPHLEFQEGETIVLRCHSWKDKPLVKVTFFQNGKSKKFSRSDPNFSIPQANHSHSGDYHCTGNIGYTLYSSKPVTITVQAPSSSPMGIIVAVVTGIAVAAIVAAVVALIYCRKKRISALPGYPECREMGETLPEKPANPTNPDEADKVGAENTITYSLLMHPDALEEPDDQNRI

How did the EC50 [1] turn out when BMS-986351 (antibody) was run?
Its EC50 is 0.0008 µM.

And the EC50 [2]?
The EC50 was 2.48 µM.

What about the EC50 [3] of the same substance?
The EC50 was 0.2 µM.

And the EC50 [4]?
Its EC50 is 1.2 µM.

Which results are given for Rituximab (antibody)?
EC50 [1]: 0.0008 µM; EC50 [3]: 0.361 µM; EC50 [5]: 0.194 µM
